B1: STF2.HA1-1His(PR8), produced in Baculovirus (protein)
chain: AQVINTNSLSLLTQNNLNKSQSALGTAIERLSSGLRINSAKDDAAGQAIANRFTANIKGLTQASRNANDGISIAQTTEGALNEINNNLQRVRELAVQSANSTNSQSDLDSIQAEITQRLNEIDRVSGQTQFNGVKVLAQDNTLTIQVGANDGETIDIDLKQINSQTLGLDSLNVQKAYDVKDTAVTTKAYANNGTTLDVSGLDDAAIKAATGGTNGTASVTGGAVKFDADNNKYFVTIGGFTGADAAKNGDYEVNVATDGTVTLAAGATKTTMPAGATTKTEVQELKDTPAVVSADAKNALIAGGVDATDANGAELVKMSYTDKNGKTIEGGYALKAGDKYYAADYDEATGAIKAKTTSYTAADGTTKTAANQLGGVDGKTEVVTIDGKTYNASKAAGHDFKAQPELAEAAAKTTENPLQKIDAALAQVDALRSDLGAVQNRFNSAITNLGNTVNNLSEARSRIEDSDYATEVSNMSRAQILQQAGTSVLAQANQVPQNVLSLLASGSGSGSSHNGKLCRLKGIAPLQLGKCNIAGWLLGNPECDPLLPVRSWSYIVETPNSENGICYPGDFIDYEELREQLSSVSSFERFEIFPKESSWPNHNTNGVTAACSHEGKSSFYRNLLWLTEKEGSYPKLKNSYVNKKGKEVLVLWGIHHPPNSKEQQNLYQNENAYVSVVTSNYNRRFTPEIAERPKVRDQAGRMNYYWTLLKPGDTIIFEANGNLIAPMYAFALSRGFGSGIITSNASMHECNTKCQTPLGAINSSLPYQNIHPVTIGECPKYVRHHHHHH
B2: STF2.HA1-3(PR8), produced in E. coli (protein)
chain: MAQVINTNSLSLLTQNNLNKSQSALGTAIERLSSGLRINSAKDDAAGQAIANRFTANIKGLTQASRNANDGISIAQTTEGALNEINNNLQRVRELAVQSANSTNSQSDLDSIQAEITQRLNEIDRVSGQTQFNGVKVLAQDNTLTIQVGANDGETIDIDLKQINSQTLGLDSLNVQKAYDVKDTAVTTKAYANNGTTLDVSGLDDAAIKAATGGTNGTASVTGGAVKFDADNNKYFVTIGGFTGADAAKNGDYEVNVATDGTVTLAAGATKTTMPAGATTKTEVQELKDTPAVVSADAKNALIAGGVDATDANGAELVKMSYTDKNGKTIEGGYALKAGDKYYAADYDEATGAIKAKTTSYTAADGTTKTAANQLGGVDGKTEVVTIDGKTYNASKAAGHDFKAQPELAEAAAKTTENPLQKIDAALAQVDALRSDLGAVQNRFNSAITNLGNTVNNLSEARSRIEDSDYATEVSNMSRAQILQQAGTSVLAQANQVPQNVLSLLANSENGICYPGDFIDYEELREQLSSVSSFERFEIFPKESSWPNHNTNGVTAACSHEGKSSFYRNLLWLTEKEGSYPKLKNSYVNKKGKEVLVLWGIHHPPNSKEQQNLYQNENAYVSVVTSNYNRRFTPEIAERPKVRDQAGRMNYYWTLLKPGDTIIFEANGNLIAPMYAFALSRG

Molecular target: Toll-like Receptor 5 (TLR5) constitutively expressed by HEK293 cells (UniProt O60602)
Assay: cell-based or functional assay

Binder	TLR activity (EC50, ng/ml)	TLR5 activity (EC50, ng/ml)
B1	3 ng/mL	–
B2	–	1.2 ng/mL

Source: patent US20130224798A1
